The values below come from US20200140526A1 (UNIVERSITY OF ROCHESTER, published 2020).

In assay [1] the target is T1, recombinant (r)HA of pH1N1 A/California/04/2009 (Protein Sciences Corp.) (influenza A virus A/California/04/2009 …, UniProt P26140 18-529).
Assay [2] addresses T1, recombinant (r)HA of pH1N1 …. This is another data set of the same source.

B1: KPF1 human monoclonal antibody (hmAb) (antibody, V domains shown)
VH: EVQLLESGGGLVQPGGSLRISCAASGSTFGDFAMSWVRQSPGRGLEWVSVTSAGGDRTYYADSVKGRFTISRDNSKNTLYLQMNSLRGEDTAMYYCARLDSSGFHYGRPGRNWGQGTLVTVSS
VL: DIQMTHSPPSLSASVGDRITITCQASQDISYYLIWYQQKPGKAPKPLIYDASNLEAGVPSRFSASGSGTDFTLTISSLQPEDLATYYCQQYKSLPYTFGQGTKLEIK
In the case of B1, in assay [1], the koff was found to be 3.42e-05 s⁻¹ and the kon came to 192000 M⁻¹ s⁻¹. Further, in assay [2], the Kd amounted to 0.178 nM.
